Tests used:
Assay in all cases: cell-based or functional assay
[1] = target: HIV-1 Env of isolate CH91 (HIV-1)
[2] = target: HIV-1 Env of isolate CNE55 (HIV-1)
[3] = target: HIV-1 Env of isolate CM240.EC1 (HIV-1)
[4] = target: HIV-1 Env of isolate CNE5 (HIV-1)
[5] = target: HIV-1 Env of isolate CH70 (HIV-1)
[6] = target: HIV-1 Env of isolate CNE53 (HIV-1)
[7] = target: HIV-1 Env of isolate 55815.EC3 (HIV-1)
[8] = target: HIV-1 Env of isolate CNE58 (HIV-1)
[9] = target: HIV-1 Env of isolate CNE57 (HIV-1)
[10] = target: HIV-1 Env of isolate 57128.VRC18 (HIV-1)
[11] = target: HIV-1 Env of isolate BZ167.ec9 (HIV-1)
[12] = target: HIV-1 Env of isolate CNE107 (HIV-1)

D1D2Fc (from UniProt P01730 26-203) (Fc fusion)
neutralization IC50 [1]: 35 nM
neutralization IC90 [1]: > 250 nM
neutralization IC50 [2]: 213 nM
neutralization IC90 [2]: > 250 nM
IC50, neutralization in TZM-bl cell-based assay [3]: 20 nM
IC90, neutralization in TZM-bl cell-based assay [3]: > 250 nM
neutralization IC50 [4]: 94 nM
neutralization IC90 [4]: 236 nM
neutralization IC50 [5]: 7.3 nM
neutralization IC90 [5]: 109 nM
neutralization IC50 [6]: 14 nM
neutralization IC90 [6]: > 250 nM
IC50, neutralization in TZM-bl cell-based assay [7]: 6.2 nM
IC90, neutralization in TZM-bl cell-based assay [7]: 116 nM
neutralization IC50 [8]: > 250 nM
neutralization IC90 [8]: > 250 nM
neutralization IC50 [9]: 250 nM
neutralization IC90 [9]: > 250 nM
IC90, neutralization in TZM-bl cell-based assay [10]: 41 nM
IC50, neutralization in TZM-bl cell-based assay [11]: 13 nM
IC90, neutralization in TZM-bl cell-based assay [11]: 60 nM
neutralization IC50 [12]: 135 nM
neutralization IC90 [12]: > 250 nM
